Experimental data as given in the supplement of paper PMC9170038.

System: MS2 coat protein
Assay: apparent KD of MS2 coat protein; designed switch direction (-1 OFF switch, 1 ON switch): -1; higher = weaker reporter binding
In short: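 The buffer was Tris-HCl pH 7.5 with KCl, MgCl2, BSA, DTT, tRNA and Tween-20. In it, SNAP-549-labelled MS2 coat protein was titrated in doubling steps from 0.7 or 1.5 nM to 3 µM over chip-bound RNA switches transcribed by stalled E. coli RNA polymerase on Illumina chips. Apparent KD is the per-design median over clusters of curve fits to normalised fluorescence.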

[1] = Eterna round: R95, input ligand: FMN 200 uM
[2] = Eterna round: R95, input ligand: microRNA oligo, concentration not stated
[3] = Eterna round: R95, input ligand: none
[4] = input ligand: microRNA oligo, concentration not stated

| Sequence | apparent KD of MS2 coat protein [1] [nM] | apparent KD of MS2 coat protein [2] [nM] | apparent KD of MS2 coat protein [3] [nM] | apparent KD of MS2 coat protein (input ligand: FMN 200 uM) [nM] | apparent KD of MS2 coat protein (input ligand: none) [nM] | apparent KD of MS2 coat protein [4] [nM] |
| --- | --- | --- | --- | --- | --- | --- |
| AGGUGGAAGCAGGAUAUGCUUGUAUAAUUGAUAGCAGAAGGGCUAACAUGAGGAUCACCCAUGUAAGAGGUGUA [JR_E6_Sub058] (puzzle: Exclusion 6) | 340 | 177 | 206 |  |  |  |
| ACCUUACAUGAGGAUCACCCAUGUCAGGAUAUCUCGGGCGGCUGAGGACCAGCCGCCCAGAGAAGGGACGAGGA [Leleusarra] (puzzle: Exclusion 1) |  | 12.5 |  |  |  |  |
| GGUCAUCAAGUCAGGAUAUCGUCUGGUCGGUCUGGCGAGAAGGGACAUGAGGAUCACCCAUGUCGACUCAUCAG [Ex4 #11] (Eterna round: R97, puzzle: Brourd's mod of Exclusion 4) |  |  |  | 29.2 | 17.6 |  |
| AAUAACAGAGGAUAUACUAUUUUAUGUAUUUAUUAUUUUGAACAUGAGGAUCACCCAUGUAGAAGGCUGAAUGA [JMF 62] (puzzle: Exclusion 2) |  | 24.4 |  |  |  |  |
| AAAUUAGCAAGUAGGUCCGACAUGAGGAUCACCCAUGUAAUCUGAAAUUACGCUGCACGAAAGUGCGCUCGUCUUAG [Sensor-V1 #11] (Eterna round: R97, puzzle: Sensor, turn-off variant 1) |  |  |  | 149 | 149 |  |
| AAAACUGCUCAGGAUAUUUGUGUGUCAGGGCAUAAAGAAGGGAGCACAUGAGGAUCACCCAUGUGUUGGGUUCC [Zasozaer] (puzzle: Exclusion 6) |  | 68.7 |  |  |  |  |
| CAUGUGUAAGGAUAUGACAAUGGUAUCGAAAGAUACCAUUGUCAGAAGGUACAUGAGGAUCACCCAUGUAGAUC [Ex4-3: 19] (puzzle: Exclusion 4) | 342 | 60.8 | 86.3 |  |  |  |
| ACAUGAGGAUCACCCAUGUGACCACAAUGGCUGAUGUAACAACAGGAUAUGCGUGAAUAUCUAACGCAGAAGGGUUUUGACUGG [Deportation 59 - Jieux - Exclusion NG 3] (Eterna round: R96, puzzle: Exclusion NG 3) |  |  |  | 84.5 | 91.1 | 71.5 |
| UUAACAUGCUGGUGAUCAUACAUGAGGAUCACCCAUGUAACAAGCUUUUUGUUCGUCUUAUAAGAUCACCAGCAUGU [Stov1/9-B1] (Eterna round: R97, puzzle: Sensor, turn-off variant 1) |  |  |  | 18.7 | 17.2 |  |
| UUUUAACAUGAGGAUCACCCAUGUGAGGAUAUCGUAAUUUUUAUUAAUAUUAAUAAAACGAGAAGGCACAUUUU [JMF 13] (puzzle: Exclusion 1) |  | 66.8 |  |  |  |  |
| GCCGUACAUGAGGAUCACCCAUGUCAGGAUAUUUAGCACUCGGAGUUCCCGAGAGGUCAAAGAAGGGACAUUGC [EX1 C.17] (Eterna round: R97, puzzle: Exclusion 1) |  |  |  | 21.6 | 17.4 |  |
| GCUGGUCGAGGAUAUACAUGAGGAUCACCCAUGUAGAUCAACCAGCGAUAGCUGGAAUGUAGAAGGCGACCAGC [E3/5-A1] (Eterna round: R97, puzzle: Exclusion 3) |  |  |  | 125 | 22.9 |  |
| UGUUGUUACGCAGGAUAUGUAUGAGGAUCACCCAUUAAUAAAUUUUAACCACGAGGAUCACCCGUGUAGAAGGGCGGGUUAACA [pwkr exNG2 2xF5 1xFMN.13] (Eterna round: R96, puzzle: Exclusion NG 2) |  |  |  | 96.3 | 105 | 65 |
| UGGUCACAUGAGGAUCACCCAUGUCAGGAUAUCUACAUUGAAGCUGCGGCUUCAAUGUAGAGAAGGGACAUAAU [E1/7-B3] (Eterna round: R97, puzzle: Exclusion 1) |  |  |  | 314 | 272 |  |
| GCGCCAUCGUGAGAUGGCGUAAUUACAUGAGGAUCACCCAUGUAGGAUAUCGAUUGCUUUGCAGUCGAGAAGGGCAUGUUUUGU [JL ENG3 3.85] (Eterna round: R96, puzzle: Exclusion NG 3) |  |  |  | 33.3 | 31.5 | 26.4 |
| CAUCUGUGAGGAUAUGGUGAGUAGUGCCUGAGCGCUGCUCACCAGAAGGCACAUGAGGAUCACCCAUGUAUGAA [Mat - Exclusion 4 - Mod of JL - D1] (puzzle: Exclusion 4) |  | 46.9 |  |  |  |  |

| Sequence | apparent KD of MS2 coat protein [1] [nM] | apparent KD of MS2 coat protein [2] [nM] | apparent KD of MS2 coat protein [3] [nM] | apparent KD of MS2 coat protein (input ligand: FMN 200 uM) [nM] | apparent KD of MS2 coat protein (input ligand: none) [nM] | apparent KD of MS2 coat protein [4] [nM] |
| --- | --- | --- | --- | --- | --- | --- |
| AGUAGAUCUACGCUUGCGUGGAUCUGCAAUGCAGGUGUUACAUGAGGAUCACCCAUGUCCUCAUUUGCUCGUCUUAG [JL turnoff v2 99.06] (puzzle: Sensor v3, turn-off variant 2) | 97.4 | 663 | 91.9 |  |  |  |
| ACAUGAGGAUCACCCAUGUCCGGCUGGUCUGUUUCGGCUGUCGAGGAUAUAGUUCGGUGUUCGCGCUAGAAGGUGGGAGCUGGC [Aenatbe mod 58] (Eterna round: R96, puzzle: Exclusion NG 3) |  |  |  | 160 | 134 | 106 |
| UAGGCACCUGCAGGAUAUUAGAGGCGCUUUCUGUAAGAAGGGCAGGUUCACAUGAGGAUCACCCAUGUAAAGAACAGCAUGGCA [Eternabot solution 24] (Eterna round: R96, puzzle: Exclusion NG 1) |  |  |  | 23.1 | 28.9 | 17.4 |
| AGCUGUGGCCGAGGAUAUCUAAAACUCAAAACCGAAAUAUAAUCGGACAUGAGGAUCACCCAUGUAGAGAAGGCGGUCUCAGCA [Eli eng2 - 078] (Eterna round: R96, puzzle: Exclusion NG 2) |  |  |  |  |  | 59.4 |
| CCAUAUAGGCGAGGAUAUACGCACCACUAACUAGUAGAAGGCGCACAUGAGGAUCACCCAUGUGAUUUCUCAAUAUUAUACAUC [Prohibition 72 - Jieux - Exclusion NG 1] (Eterna round: R96, puzzle: Exclusion NG 1) |  |  |  | 174 | 157 | 107 |
| GCCAGAGCAGGAUAUUUAUAUUAUCACAUGAGGAUCACCCAUGUCCAGCGAAAGCUGGAGGGAGAAGGGCUCUGGC [Fiskers Ex 5 - 25] (puzzle: Exclusion 5) | 121 | 190 | 250 |  |  |  |
| GCCAAUGUGGAGGAUAUCGACUUCGAAAGAAGUCGAGAAGGCCACACAUGAGGAUCACCCAUGUGAUGCCAGGC [Omei Ex6 H10] (Eterna round: R97, puzzle: Exclusion 6) |  |  |  | 216 | 189 |  |
| GAAGAAGAGAGAAAAGAAAACAUGAGGAUCACCCAUGUGAGAAGAUGAGGGUGUAACAGGCUUUAUGCUCGUCUUAU (puzzle: Sensor v3, turn-off variant 1) | 33.6 | 120 | 40.1 |  |  |  |
| UCGUGGAUCGAGGAUAUGCCACGGACAGACGCCGCAGAAGGCGAAACAUGAGGAUCACCCAUGUGUGCCAUCCU [Eternabot (L1) Solution 52] (Eterna round: R97, puzzle: Exclusion 6) |  |  |  | 58.5 | 56.5 |  |
| CGGUGCUGAGGAUAUACAUGAGGAUCACCCAUGUGUUCCUGCUAGGUGACUGGCAAAUGUAGAAGGCGGUACUG [JL-ex3-3.37 Brourd mod] (puzzle: Exclusion 3) | 34.8 | 120 | 131 |  |  |  |
| UGUAUCCGAGGAUAUCGCUUGAGGGACAUGAGGAUCACCCAUGUGAAGAAAAGCGUCCCGCGAGAAGGCGGACCCA [EX5 B.24] (Eterna round: R97, puzzle: Exclusion 5) |  |  |  | 189 | 66.4 |  |
| GAUGUACAUGAGGAUCACCCAUGUCAGGAUAUUAGGCGCCCUCAUAGCAGGGCCAUGAUGAGAAGGGACAGUAC [Eternabot (L2) Solution 33] (Eterna round: R97, puzzle: Exclusion 1) |  |  |  | 67.6 | 66.4 |  |
| AUCUGCACGCUGCGGUCCUACAUGAGGAUCACCCAUGUGGUCUGGUGGCGUGGGUCACCGGACUUGGCUCGUCUUGC [salish99_S_TOV1_R5_054] (Eterna round: R97, puzzle: Sensor, turn-off variant 1) |  |  |  | 19.8 | 19.6 |  |
| AAGUCCAGAGGAUAUCAGACGCGGCACAUGAGGAUCACCCAUGUAUUCCCGUCUGCCGACUGAGAAGGUUGGAAAG [Vesoarusqu] (puzzle: Exclusion 5) |  | 11.1 |  |  |  |  |
| AAUGAUUGACGAGGAUAUUGUGUUAGAUCACGACGAGAAGGCGUCUGUCACAUGAGGAUCACCCAUGUGAGCCUGGUGGAUAGA [Ex NG1 #78] (Eterna round: R96, puzzle: Exclusion NG 1) |  |  |  | 82.6 | 50 | 35.1 |
